Assay results reported in patent publication US20220380739.
Where a chain is given by its changes, count along the chain named. Numbers in names are those of the source.

T1: Abz-VDVADNA-Dap (Dnp)
T1 chain: VDVADNA

T2: Abz-VDVADEA-Dap (Dnp)
T2 chain: VDVADEA

T3: Abz-VDVADKA-Dap (Dnp)
T3 chain: VDVADKA

T4: Abz-VDVADHA-Dap (Dnp)
T4 chain: VDVADHA

T5: Abz-VDVADGA-Dap (Dnp)
T5 chain: VDVADGA

T6: Abz-VDVADSA-Dap (Dnp)
T6 chain: VDVADSA

T7: Abz-VDVADFA-Dap (Dnp)
T7 chain: VDVADFA

T8: Abz-VDVADAA-Dap (Dnp)
T8 chain: VDVADAA

T9: Abz-VDVADTA-Dap (Dnp)
T9 chain: VDVADTA

T10: Abz-VDVADRA-Dap (Dnp)
T10 chain: VDVADRA

T11: Abz-VDVADMA-Dap (Dnp)
T11 chain: VDVADMA

T12: Abz-VDVADWA-Dap (Dnp)
T12 chain: VDVADWA

T13: Abz-VDVADCA-Dap (Dnp)
T13 chain: VDVADCA

T14: Abz-VDVADDA-Dap (Dnp)
T14 chain: VDVADDA

T15: Abz-VDVADQA-Dap (Dnp)
T15 chain: VDVADQA

T16: Abz-VDVADLA-Dap (Dnp)
T16 chain: VDVADLA

T17: Abz-VDVADVA-Dap (Dnp)
T17 chain: VDVADVA

T18: Abz-VDVADIA-Dap (Dnp)
T18 chain: VDVADIA

T19: Abz-VDVADYA-Dap (Dnp)
T19 chain: VDVADYA

T20: Abz-VDVADPA-Dap (Dnp)
T20 chain: VDVADPA

B1: T7AC_6H_mS9ProE (protein)
chain: MLEDPERNKERKEAELQAQTAEQHHHHHHGKNHAGSPGCEESAAGKEKLPKMRLPTRSDMICGYACLKGTAAMRNTKRGSWYIEALAQVFSERACDMHVADMLVKVNALIKDREGYAPGTEFHRCKVMSEYCSTLCRHLYLFPGHPPTGSGPVCLQVKPCTPEFYQTHFQLAYRLQSRPRGLALVLSNVHFTDEKELEFRSGGDVDHSTLVTLFKLLGYDVHVLCDQTAQEMQEKLQNFAQLPAHRGTDSCIVALLSHGVEGAIYGVDGKLLQLQEVFQLFDNANCPSLQNKPKMFFIQACRGEETERGVDQQD
B2: T7AC_6H_cpCasp2D (protein)
chain: B1 chain with V127E, D193G, G247V, E304D, E307D
B3: T7AC_6H_mS9ProD (protein)
chain: B1 chain with E307D
B4: 6H_cpCasp2_S9_E105V (protein)
chain: MHHHHHHGKNHAGSPGCEESAAGKEKLPKMRLPTRSDMICGYACLKGTAAMRNTKRGSWYIEALAQVFSERACDMHVADMLVKVNALIKDREGYAPGTEFHRCKVMSEYCSTLCRHLYLFPGHPPTGSGPVCLQVKPCTPEFYQTHFQLAYRLQSRPRGLALVLSNVHFTGEKELEFRSGGDVDHSTLVTLFKLLGYDVHVLCDQTAQEMQEKLQNFAQLPAHRVTDSCIVALLSHGVEGAIYGVDGKLLQLQEVFQLFDNANCPSLQNKPKMFFIQACRGDETDRGVDQQD
B5: cp caspase-2 (6H_cpCasp2D) (protein)
chain: B4 chain with V105E
B6: 6H_cpCasp2_G171D (protein)
chain: B4 chain with V105E, G171D
B7: Caspase-2 (human), recombinant, active, Enzo Life Sciences (protein)
chain: GPVCLQVKPCTPEFYQTHFQLAYRLQSRPRGLALVLSNVHFTGEKELEFRSGGDVDHSTLVTLFKLLGYDVHVLCDQTAQEMQEKLQNFAQLPAHRVTDSCIVALLSHGVEGAIYGVDGKLLQLQEVFQLFDNANCPSLQNKPKMFFIQACRGDETDRGVDQQDGKNHAGSPGCEESDAGKEKLPKMRLPTRSDMICGYACLKGTAAMRNTKRGSWYIEALAQVFSERACDMHVADMLVKVNALIKDREGYAPGTEFHRCKEMSEYCSTLCRHLYLFPGHPPT
B8: wt caspase-2 (human, produced in E. coli with poly-his-tag) (protein)
chain: GPVCLQVKPCTPEFYQTHFQLAYRLQSRPRGLALVLSNVHFTGEKELEFRSGGDVDHSTLVTLFKLLGYDVHVLCDQTAQEMQEKLQNFAQLPAHRVTDSCIVALLSHGVEGAIYGVDGKLLQLQEVFQLFDNANCPSLQNKPKMFFIQACRGDETDRGVDQQDGKNHAGSPGCEESDAGKEKLPKMRLPTRSDMICGYACLKGTAAMRNTKRGSWYIEALAQVFSERACDMHVADMLVKVNALIKDREGYAPGTEFHRCKEMSEYCSTLCRHLYLFPGHPPTHHHHHH
B9: T7AC-6H-cpCasp2_sar (protein)
chain: MLEDPERNKERKEAELQAQTAEQHHHHHHGKEHMASPGCEQSAAGKEKILKMRLPTRSDMICGYACLKGTAAMRNTKRGSWYIEALTQVFSERARDMHVADMLVKVNALIKDREGYAPGTEFHRCKEMSEYSSTLCRHLYLFPGHPPTGSGPPSLQVKPCTSEFYRTHHHLAYRLQSRPRGLALVLSNVHFNGEKDLEFRSGGDVDHSSLVTLFKLLDYDVHVLRDQTAQEMYEKLQRFAQLSTHQNTDSCVVALLSHGIEGGIYGVDGQLLQLQEVFQLFDNANCPNLQNKPKMFFIQACRGDETDRGVDLRD
B10: T7AC-6H-cpCasp2_sar_E105V, E172V (protein)
chain: B9 chain with E127V, E194V

Molecular target: T1, Abz-VDVADNA-Dap (Dnp)

Row | Protein | KM [µM]
1 | B1 | 120
2 | B2 | 87
3 | B3 | 130
4 | B4 | 100
5 | B5 | 78
6 | B6 | 110

Molecular target: T7AC-6H-GSG-VDVAD-hFGF-2

Row | Protein | KM [µM]
7 | B1 | 298
8 | B2 | 881
9 | B3 | 329
10 | B5 | 639

Molecular target: T2, Abz-VDVADEA-Dap (Dnp)

Row | Protein | KM [µM]
11 | B1 | 110
12 | B2 | 200
13 | B3 | 160
14 | B4 | 180
15 | B5 | 170
16 | B6 | 210

Molecular target: T3, Abz-VDVADKA-Dap (Dnp)

Row | Protein | KM [µM]
17 | B1 | 92
18 | B2 | 110
19 | B3 | 79
20 | B4 | 97
21 | B5 | 120
22 | B6 | 94

Molecular target: T7AC_6H_GSGSGSG_VDVAD-hFGF2

Row | Protein | KM [µM]
23 | B3 | 252

Molecular target: T4, Abz-VDVADHA-Dap (Dnp)

Row | Protein | KM [µM]
24 | B1 | 160
25 | B2 | 110
26 | B3 | 170
27 | B4 | 160
28 | B5 | 120
29 | B6 | 170

Molecular target: T7AC-6H-VDVAD-hFGF2

Row | Protein | KM [µM]
30 | B3 | 529

Molecular target: DEVD-E2

Row | Protein | cleavage of DEVD-E2 compared with VDVAD-E2
31 | B7 | cleaved DEVD-E2 only 44 times slower than VDVAD-E2
32 | B5 | processed 140 times slower than VDVAD-E2

Molecular target: T5, Abz-VDVADGA-Dap (Dnp)

Row | Protein | KM [µM]
33 | B8 | 97
34 | B9 | 48
35 | B10 | 31
36 | B1 | 43
37 | B3 | 65
38 | B4 | 57
39 | B5 | 110
40 | B6 | 75

Molecular target: T6, Abz-VDVADSA-Dap (Dnp)

Row | Protein | KM [µM]
41 | B1 | 120
42 | B2 | 130
43 | B3 | 180
44 | B4 | 200
45 | B5 | 200
46 | B6 | 220

Molecular target: T7, Abz-VDVADFA-Dap (Dnp)

Row | Protein | KM [µM]
47 | B8 | 79
48 | B9 | 44
49 | B10 | 52
50 | B1 | 80
51 | B3 | 120
52 | B4 | 77
53 | B5 | 60
54 | B6 | 86

Molecular target: T8, Abz-VDVADAA-Dap (Dnp)

Row | Protein | KM [µM]
55 | B1 | 110
56 | B2 | 120
57 | B3 | 100
58 | B4 | 110
59 | B5 | 89
60 | B6 | 120

Molecular target: 6H-GSG-VDVAD-TNFalpha
Sequence (chain, as listed by the source): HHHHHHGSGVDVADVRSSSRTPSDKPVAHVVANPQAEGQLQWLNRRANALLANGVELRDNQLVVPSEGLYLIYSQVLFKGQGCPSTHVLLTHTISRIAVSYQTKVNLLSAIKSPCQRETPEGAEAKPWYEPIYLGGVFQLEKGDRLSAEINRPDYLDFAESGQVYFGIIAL

Row | Protein | KM [µM]
61 | B1 | 520
62 | B2 | 280

Molecular target: T9, Abz-VDVADTA-Dap (Dnp)

Row | Protein | KM [µM]
63 | B1 | 100
64 | B2 | 89
65 | B3 | 120
66 | B4 | 150
67 | B5 | 75
68 | B6 | 140

Molecular target: T10, Abz-VDVADRA-Dap (Dnp)

Row | Protein | KM [µM]
69 | B1 | 68
70 | B2 | 56
71 | B3 | 47
72 | B4 | 48
73 | B5 | 58
74 | B6 | 65

Molecular target: T11, Abz-VDVADMA-Dap (Dnp)

Row | Protein | KM [µM]
75 | B1 | 370
76 | B2 | 340
77 | B3 | 480
78 | B4 | 830
79 | B5 | 380
80 | B6 | 610

Molecular target: T7AC_6H_GSG_VDSAD-hFGF2

Row | Protein | KM [µM]
81 | B3 | 865

Molecular target: T12, Abz-VDVADWA-Dap (Dnp)

Row | Protein | KM [µM]
82 | B1 | 56
83 | B2 | 36
84 | B3 | 53
85 | B4 | 51
86 | B5 | 46
87 | B6 | 56

Molecular target: T13, Abz-VDVADCA-Dap (Dnp)

Row | Protein | KM [µM]
88 | B5 | 38

Molecular target: T14, Abz-VDVADDA-Dap (Dnp)

Row | Protein | KM [µM]
89 | B1 | 150
90 | B2 | 180
91 | B3 | 190
92 | B4 | 200
93 | B5 | 160
94 | B6 | 150

Molecular target: T15, Abz-VDVADQA-Dap (Dnp)

Row | Protein | KM [µM]
95 | B8 | 110
96 | B9 | 94
97 | B10 | 120
98 | B1 | 120
99 | B3 | 120
100 | B4 | 130
101 | B5 | 120
102 | B6 | 160

Molecular target: T16, Abz-VDVADLA-Dap (Dnp)

Row | Protein | KM [µM]
103 | B1 | 410
104 | B2 | 160
105 | B3 | 400
106 | B4 | 300
107 | B5 | 290
108 | B6 | 300

Molecular target: T17, Abz-VDVADVA-Dap (Dnp)

Row | Protein | KM [µM]
109 | B8 | 86
110 | B9 | 34
111 | B10 | 69
112 | B1 | 90
113 | B3 | 100
114 | B4 | 81
115 | B5 | 64
116 | B6 | 96

Molecular target: T18, Abz-VDVADIA-Dap (Dnp)

Row | Protein | KM [µM]
117 | B1 | 130
118 | B2 | 62
119 | B3 | 110
120 | B4 | 70
121 | B5 | 71
122 | B6 | 78

Molecular target: T19, Abz-VDVADYA-Dap (Dnp)

Row | Protein | KM [µM]
123 | B1 | 420
124 | B2 | 300
125 | B3 | 900
126 | B4 | 340
127 | B5 | 340
128 | B6 | 350

Molecular target: T20, Abz-VDVADPA-Dap (Dnp)

Row | Protein | KM [µM]
129 | B1 | 120
130 | B2 | 150
131 | B3 | 100
132 | B4 | 250
133 | B5 | 300
134 | B6 | 390
